The results in this text go back to patent US20040132659A1 (UNIVERSITY OF SOUTHERN CALIFORNIA, published 2004).

In one assay the target is integrin αvβ3 on cells (human, UniProt P06756 31-1048; P05106 27-788). Kind of assay: cell-based or functional assay.
Assay [1] addresses integrin αvβ5 on cells (human) (UniProt P06756). Kind of assay: cell-based or functional assay.
Assay [2] deals with T1, platelet membrane glycoprotein (GP)IIb/IIIa on human platelets (human, UniProt P08514 32-1039; P05106 27-788).
T1 construct: whole, on cells; also called fibrinogen receptor; αIIbβ3
T1 sequence (P08514 32-1039, chain 1 of 2): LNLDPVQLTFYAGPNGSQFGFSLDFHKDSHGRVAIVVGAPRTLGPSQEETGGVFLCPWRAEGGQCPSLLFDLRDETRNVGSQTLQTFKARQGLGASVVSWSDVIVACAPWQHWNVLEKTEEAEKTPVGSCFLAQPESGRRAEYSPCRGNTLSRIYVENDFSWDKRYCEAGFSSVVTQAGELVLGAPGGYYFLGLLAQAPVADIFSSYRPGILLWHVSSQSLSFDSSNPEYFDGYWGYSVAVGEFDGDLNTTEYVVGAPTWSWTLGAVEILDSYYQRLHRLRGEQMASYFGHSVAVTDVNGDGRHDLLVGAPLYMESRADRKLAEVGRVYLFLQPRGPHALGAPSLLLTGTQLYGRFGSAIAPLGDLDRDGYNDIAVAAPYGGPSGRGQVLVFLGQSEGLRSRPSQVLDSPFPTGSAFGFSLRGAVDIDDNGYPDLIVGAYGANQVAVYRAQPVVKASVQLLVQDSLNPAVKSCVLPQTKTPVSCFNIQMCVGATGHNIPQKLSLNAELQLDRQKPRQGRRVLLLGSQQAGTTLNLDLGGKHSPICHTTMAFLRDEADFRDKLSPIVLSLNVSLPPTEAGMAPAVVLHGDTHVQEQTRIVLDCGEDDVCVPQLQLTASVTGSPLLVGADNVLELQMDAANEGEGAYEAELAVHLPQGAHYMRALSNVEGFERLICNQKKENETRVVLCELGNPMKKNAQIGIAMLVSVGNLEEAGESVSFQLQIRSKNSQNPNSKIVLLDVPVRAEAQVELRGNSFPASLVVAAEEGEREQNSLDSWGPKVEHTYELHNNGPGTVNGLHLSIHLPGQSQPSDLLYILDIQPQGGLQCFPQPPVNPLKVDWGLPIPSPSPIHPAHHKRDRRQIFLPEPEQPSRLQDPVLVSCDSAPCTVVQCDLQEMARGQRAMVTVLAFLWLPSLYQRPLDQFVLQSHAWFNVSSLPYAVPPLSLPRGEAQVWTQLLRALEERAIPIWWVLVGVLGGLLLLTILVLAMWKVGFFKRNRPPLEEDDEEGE
T1 sequence (P05106 27-788, chain 2 of 2): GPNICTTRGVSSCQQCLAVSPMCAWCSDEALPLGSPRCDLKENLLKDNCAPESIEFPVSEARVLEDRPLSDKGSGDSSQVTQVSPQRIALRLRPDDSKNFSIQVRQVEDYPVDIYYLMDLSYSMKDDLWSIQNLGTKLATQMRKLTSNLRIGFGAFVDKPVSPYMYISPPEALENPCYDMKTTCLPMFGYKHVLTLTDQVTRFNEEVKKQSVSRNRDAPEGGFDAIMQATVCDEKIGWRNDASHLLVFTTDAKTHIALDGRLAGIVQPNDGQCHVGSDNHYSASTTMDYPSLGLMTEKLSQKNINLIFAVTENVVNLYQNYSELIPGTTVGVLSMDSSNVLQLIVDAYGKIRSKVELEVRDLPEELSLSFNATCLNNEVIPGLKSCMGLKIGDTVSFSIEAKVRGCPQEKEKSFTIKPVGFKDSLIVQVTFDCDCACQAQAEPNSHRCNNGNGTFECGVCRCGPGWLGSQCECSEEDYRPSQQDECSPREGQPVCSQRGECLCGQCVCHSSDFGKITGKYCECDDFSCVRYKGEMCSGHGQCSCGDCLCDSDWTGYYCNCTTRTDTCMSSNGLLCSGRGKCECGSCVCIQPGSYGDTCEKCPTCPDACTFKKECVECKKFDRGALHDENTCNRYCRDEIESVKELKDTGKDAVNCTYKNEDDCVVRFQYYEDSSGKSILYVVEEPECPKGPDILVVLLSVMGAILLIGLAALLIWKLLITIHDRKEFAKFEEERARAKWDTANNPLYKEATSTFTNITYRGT
Kind of assay: Scatchard analysis of CN binding to unactivated human platelets.

The target in assay [3] is binding sites on human melanoma M24met cells. Kind of assay: binding of CN to human melanoma M24met cells, high affinity site.
Assay [4] has as its target T1, platelet membrane glycoprotein ….
Assay [5] has as its target binding sites on human melanoma M24met cells. Kind of assay: binding of CN to human melanoma M24met cells, lower affinity site.
The target in assay [6] is integrin receptors on the surface of MDA-MB-435 cells. Nature of the assay: cell-based or functional assay.
Assay [7] has the same target. Nature of the assay: inhibition of binding of MDA-MB-435 cells to immobilized CN (0.1 µg/well); competitor: immobilized CN.

integrin αvβ3 on cells, sequence (P06756 31-1048, chain 1 of 2): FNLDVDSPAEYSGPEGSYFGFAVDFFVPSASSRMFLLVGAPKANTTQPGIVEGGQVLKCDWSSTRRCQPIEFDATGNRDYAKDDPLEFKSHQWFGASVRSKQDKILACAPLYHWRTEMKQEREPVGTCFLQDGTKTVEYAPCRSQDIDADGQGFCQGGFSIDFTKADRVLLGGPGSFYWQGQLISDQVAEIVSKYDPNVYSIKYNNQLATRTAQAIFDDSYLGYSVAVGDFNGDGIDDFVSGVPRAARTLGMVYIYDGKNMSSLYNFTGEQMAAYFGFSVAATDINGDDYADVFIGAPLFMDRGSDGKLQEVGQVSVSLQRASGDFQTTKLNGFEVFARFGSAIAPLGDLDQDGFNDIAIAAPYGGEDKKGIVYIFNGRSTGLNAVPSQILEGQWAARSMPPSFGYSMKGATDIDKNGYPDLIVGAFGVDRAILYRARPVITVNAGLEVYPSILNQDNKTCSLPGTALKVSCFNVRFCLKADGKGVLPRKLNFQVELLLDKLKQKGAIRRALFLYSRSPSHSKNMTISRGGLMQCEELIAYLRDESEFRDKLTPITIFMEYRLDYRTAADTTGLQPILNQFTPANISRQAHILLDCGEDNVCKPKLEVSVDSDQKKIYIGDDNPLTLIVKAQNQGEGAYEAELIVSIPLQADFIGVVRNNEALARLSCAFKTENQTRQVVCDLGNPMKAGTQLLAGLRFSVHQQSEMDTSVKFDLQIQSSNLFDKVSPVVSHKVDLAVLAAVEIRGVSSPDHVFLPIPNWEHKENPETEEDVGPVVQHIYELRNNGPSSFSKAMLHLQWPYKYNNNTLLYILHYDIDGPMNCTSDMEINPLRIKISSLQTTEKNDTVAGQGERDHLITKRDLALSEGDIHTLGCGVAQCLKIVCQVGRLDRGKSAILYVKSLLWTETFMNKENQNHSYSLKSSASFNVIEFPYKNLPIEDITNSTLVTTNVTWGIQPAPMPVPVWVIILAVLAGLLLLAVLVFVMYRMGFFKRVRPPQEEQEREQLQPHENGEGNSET
integrin αvβ3 on cells, sequence (P05106 27-788, chain 2 of 2): as the sequence (P05106 27-788, chain 2 of 2) above
integrin αvβ5 on cells (human), sequence (P06756 31-1048, chain 1 of 2): as the sequence (P06756 31-1048, chain 1 of 2) above
integrin αvβ5 on cells (human), sequence (P18084 24-799, chain 2 of 2, further chain): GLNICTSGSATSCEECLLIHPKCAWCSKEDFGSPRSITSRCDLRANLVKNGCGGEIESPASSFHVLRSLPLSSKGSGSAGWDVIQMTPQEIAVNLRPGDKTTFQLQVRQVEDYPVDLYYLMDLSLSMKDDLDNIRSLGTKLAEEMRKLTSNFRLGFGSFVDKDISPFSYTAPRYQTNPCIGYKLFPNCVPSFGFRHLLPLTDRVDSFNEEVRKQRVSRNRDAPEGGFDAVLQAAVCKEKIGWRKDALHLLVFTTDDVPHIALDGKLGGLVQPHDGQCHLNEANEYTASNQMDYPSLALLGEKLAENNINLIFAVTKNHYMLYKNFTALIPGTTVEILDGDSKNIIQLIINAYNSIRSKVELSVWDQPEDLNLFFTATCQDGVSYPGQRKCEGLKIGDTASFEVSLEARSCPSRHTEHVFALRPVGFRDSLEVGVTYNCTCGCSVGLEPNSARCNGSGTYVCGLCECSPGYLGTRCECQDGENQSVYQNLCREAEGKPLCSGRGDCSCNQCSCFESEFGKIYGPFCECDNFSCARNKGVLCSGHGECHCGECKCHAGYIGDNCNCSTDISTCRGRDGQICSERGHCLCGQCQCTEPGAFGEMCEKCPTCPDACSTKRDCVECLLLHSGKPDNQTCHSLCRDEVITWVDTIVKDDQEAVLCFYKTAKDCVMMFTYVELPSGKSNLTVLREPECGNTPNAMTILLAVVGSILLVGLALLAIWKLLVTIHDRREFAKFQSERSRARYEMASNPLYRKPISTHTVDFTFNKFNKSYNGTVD

Regarding 7E3 murine monoclonal antibody, the maximum inhibition of adhesion of T24 cells to immobilized vitronectin with integrin αvβ3 on cells was < 40%.
For the molecule P1F6 monoclonal antibody, in assay [1], the inhibition of adhesion of T24-β3 neg. cells to immobilized vitronectin was 80% and the inhibition of adhesion of T24 cells to immobilized vitronectin was < 40%.

B1: contortrostatin (ligand)
chain: DAPANPCCDAATCKLTTGSQCADGLCCDQCKFMKEGTVCRRARGDDLDDYCNGISAGCPRNPFHA
notes: also called CN; homodimeric disintegrin
By Kd is commonly meant the concentration at which binding is half-saturated. High values mean a looser complex, low ones a tighter complex. In general, IC50 refers to the concentration needed to halve the response being measured. Take B1: the Kd in assay [2] stood at 0.037 µM; in assay [3], 0.0011 µM; in assay [5] it was 0.041 µM. The sites per cell (sites per cell) in assay [3] was 96000; in assay [5], 480000. In assay [4], the IC50 turned out to be 0.025 µM. In assay [6], the IC50 for inhibition of adhesion of MDA-MB-435 cells to immobilized fibronectin was 0.018 µM. Also, the “IC50 for inhibition of adhesion of MDA-MB-435 cells to immobilized vitronectin” value with integrin αvβ3 on cells came out at 0.0015 µM.
For GRGDSP [RGD peptide GRGDSP], the IC50 in assay [7] is 400 µM.
